Source: publication PMC4136552 (Journal of molecular recognition : JMR, 2011)

B1: human Grb7-SH2 domain (domain or fragment, UniProt Q14451 431-527, looked up)
chain: WFHGRISREESQRLIGQQGLVDGLFLVRESQRNPQGFVLSLCHLQKVKHYLILPSEEEGRLYFSMDDGQTRFTDLLQLVEFHQLNRGILPCLLRHCC

Key:
[1] = target: erbB2 peptide (Homo sapiens) (UniProt P04626); details: cited from earlier work
[2] = target: hGrb7-RA-PH domains (residues 103-341), hexa-histidine fusion (human, UniProt Q14451 103-341); experiment: ITC
Sequence of hGrb7-RA-PH domains (residues 103-341), hexa-histidine fusion (Q14451 103-341): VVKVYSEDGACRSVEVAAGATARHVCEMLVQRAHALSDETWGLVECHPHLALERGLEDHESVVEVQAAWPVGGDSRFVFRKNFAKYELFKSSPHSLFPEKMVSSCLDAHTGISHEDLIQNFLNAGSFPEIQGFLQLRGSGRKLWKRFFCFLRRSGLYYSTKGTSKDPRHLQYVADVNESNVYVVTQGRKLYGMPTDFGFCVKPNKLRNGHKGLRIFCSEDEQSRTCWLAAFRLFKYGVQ

| Molecule | Kd [1] [nM] | Kd [2] [nM] |
| --- | --- | --- |
| Grb7 SH2 (from UniProt Q14451) | 2280 |  |
| B1 |  | 2800 |
